The values below are quoted from earlier work in article PMC4518304.

This data set deals with Asp26 (UniProt position 27, GAILVDFWAEW). Nature of the data set: NMR. Particulars: reduced thioredoxin (per title of ref. 51).

Take “Thioredoxin (thioredoxin 1) (Escherichia coli)”: the pKa was 7.3–7.5.
